# Test results reported in publication PMC7563477, “N-Terminal Segment of TvCyP2 Cyclophilin from Trichomonas vaginalis Is Involved in Self-Association, Membrane Interaction, and Subcellular Localization” (Biomolecules, 2020).
# B1: TvCyP2_(3–18) peptide (peptide)
# peptide: AFFATRVISAPKVTKK
# notes: residues 3-18 of TvCyP2 of Trichomonas vaginalis (N-terminal segment); source: synthetic peptide, HPLC-grade, bought: Yao-Hong Biotechnology
# Biological target: T1, T. vaginalis cyclophilin 2 (TvCyP2), recombinant with C-terminal His-tag (Trichomonas vaginalis, UniProt A2DLL4 1-186)
# T1 construct: TvCyP2 cyclophilin of Trichomonas vaginalis, with its N-terminal segment; secondary structure is described up to residue 184; theoretical molecular weight 20.947 kDa; 15N-labelled for the NMR experiments; Cloned into pET-29b by NdeI and XhoI; also called TvCyP2_apo1; TvCyP2_apo2; source: E. coli BL21(DE3), purified (Q-sepharose flow-through, Ni-NTA; SEC superdex-75 for crystallization and …)
# Test: NMR titration; 2D 1H-15N HSQC of the 15N-labelled protein without and with unlabelled TvCyP2(3-18) peptide (molar ratio 1:5); 800 MHz, 310 K; 20 mM NaH2PO4, 50 mM NaCl, pH 6.0, 10% D2O
# Conditions: both partners purified
binder,measurement,value
B1,binding result,binds
